Results published in patent publication US8158851B2, “Transgenic high tryptophan plants” (Monsanto Technology LLC, priority 2002, dated 2012).
Numbering of substitutions follows the chain as printed. Where two headings read alike, the source gives them in different places.

B1: F298A (protein)
chain: MVTIIQDDGAETYETKGGIQVSRKRRPTDYANAIDNYIEKLDSHRGAVFSSNYEYPGRYTRWDTAIVDPPLGISCFGRKMWIEAYNGRGEVLLDFITEKLKATPDLTLGASSTRRLDLTVNEPDRVFTEEERSKIPTVFTALRAIVDLFYSSADSAIGLFGAFGYDLAFQFDAIKLSLARPEDQRDMVLFLPDEILVVDHYSAKAWIDRYDFEKDGMTTDGKSSDITPDPFKTTDTIPPKGDHRPGEYSELVVKAKESFRRGDLFEVVPGQKFMERCESNPSAISRRLKAINPSPYSAFINLGDQEYLVGASPEMFVRVSGRRIETCPISGTIKRGDDPIADSEQILKLLNSKKDESELTMCSDVDRNDKSRVCEPGSVKVIGRRQIEMYSRLIHTVDHIEGRLRDDMDAFDGFLSHAWAVTVTGAPKLWAMRFIEGHEKSPRAWYGGAIGMVGFNGDMNTGLTLRTIRIKDGIAEVRAGATLLNDSNPQEEEAETELKASAMISAIRDAKGTNSAATKRDAAKVGTGVKILLVDHEDSFVHTLANYFRQTGATVSTVRSPVAADVFDRFQPDLVVLSPGPGSPTDFDCKATIKAARARDLPIFGVCLGLQALAEAYGGELRQLAVPMHGKPSRIRVLEPGLVFSGLGKEVTVGRYHSIFADPATLPRDFIITAESEDGTIMGIEHAKEPVAAVQFHPESIMTLGQDAGMRMIENVVVHLTRKAKTKAA
modifications: An A. tumefaciens mutant.
B2: S51C (protein)
chain: B1 chain with S51C, A298F
modifications: An A. tumefaciens mutant.
B3: V48Y (protein)
chain: B1 chain with V48Y, A298F
modifications: An A. tumefaciens mutant.

Experiments:
[1] = test system: Agrobacterium tumefaciens AS; experiment: Anthranilate synthase enzyme assay and kinetic analysis of purified enzymes; type: biochemical; settings: for Km: 25° C.
Protocol: Agrobacterium tumefaciens AS wild type and mutant enzymes were expressed in E. coli as described in Example 1. The purification of all the Agrobacterium tumefaciens AS enzymes, including wild type and mutants thereof, was performed at 4° C. The cells (approximate wet weight of 1 g) were suspended in 20 ml of purification buffer (50 mM potassium phosphate, pH 7.3, 10 mM MgCl2, 10 mM 2-mercaptoethanol, 10% glycerol) and lysed by ultrasonication (Branson sonifier Cell Disruptor, W185). Supernatant was collected after centrifugation of the homogenate at 20,000×g for 15 min. The supernatant was subjected to ammonium sulfate fractionation (30 to 65% saturation). The precipitate was collected after centrifugation at 20,000×g for 15 min and dissolved in 3 ml of the purification buffer and then loaded as a whole on an Econo-Pac 10DG desalting column, pre-equilibrated with the same buffer. Fractions containing the enzyme were detected by the developed assay and pooled. The pooled enzyme (4.3 mls) was loaded on a 10 ml DEAF Sephacel (Pharmacia Biotech) column (1.5×7.5 cm) equilibrated with the same buffer. The column was washed with 30 ml of the purification buffer and the enzyme was eluted with 30 ml of 50 mM NaCl in the same buffer. Fractions containing high AS activity were pooled and precipitated by 65% ammonium sulfate saturation and isolated and desalted as above. Fractions containing the enzyme were pooled and stored at −80° C.
The standard assay for Agrobacterium tumefaciens AS was performed at 25° C. in an assay buffer containing 100 mM potassium phosphate, pH 7.0, 10 mM MgCl2, 1 mM dithiothreitol, 200 μM chorismate and 10 mM L-glutamine. The reaction was started by adding 30 μl of enzyme to the reaction mixture and mixing. The formation of anthranilate was directly monitored by the absorbance increase at 320 m for 3 minutes. Initial rate of reaction was calculated as unit absorbance increase per second based on the slope of the absorbance change over the reaction time. Km for chorismate (Km^Cho) was determined in the total volume of 1 ml assay buffer containing 100 mM potassium phosphate, pH 7.0, 10 mM MgCl2, 1 mM dithiothreitol with 10 mM L-glutamine and varying the concentration of chorismate between 2.5-100 μM chorismate. The Km for glutamine (Km^Gln) was determined in the total volume of 1 ml assay buffer containing 100 mM potassium phosphate, pH 7.0, 10 mM MgCl2, 1 mM dithiothreitol with 200 μM chorismate and varying the concentration of L-glutamine between 0.1-2 mM L-glutamine. IC50 for tryptophan (IC50^Trp) was determined with in the total volume of 1 ml assay buffer containing 100 mM potassium phosphate, pH 7.0, 10 mM MgCl2, 1 mM dithiothreitol, 10 mM L-glutamine, 200 μM chorismate and varying the concentration of L-tryptophan between 0.1-10 mM L-tryptophan. Kinetic parameters and IC50 of AS were calculated after fitting the data to a non-linear regression program (GraFit).

soy seed = experiment: Free amino acid analysis of soy seed (tryptophan content); type: in vivo, Glycine max; settings: R1 soy seeds expressing the mutant protein
Protocol: Amino Acid Extraction: About 50 mg of crushed soy seed (5 mg of Arabidopsis) material was placed in each centrifuge vial. One milliliter of 5% trichloroacetic acid was added to each sample (100 μl for Arabidopsis). The samples were vortexed, and allowed to sit, with agitation, at room temperature for 15 min. They were then microcentrifuged for 15 min at 14000 rpm. Some of the supernatant was then removed, placed in a HPLC vial and sealed. Samples were kept at 4° C. in the analysis queue.
Amino Acid Analysis: The reagents utilized for amino acid analysis included the OPA reagent (o-phthalaldehyde and 3-mercaptopropionic acid in borate buffer (Hewlett-Packard, PN 5061-3335)) where the borate buffer (0.4 N in water, pH 10.2). The analysis was performed using the Agilent 1100 series HPLC system as described in the Agilent Technical Publication, “Amino Acid Analysis Using Zorbax Eclipse-AAA Columns and the Agilent 1100 HPLC”, Mar. 17, 2000. First, 0.5 μl of the sample was derivatized with 2.5 μl of OPA reagent in 10 μl of borate buffer. Second, the derivative is injected onto a Eclipse XDB-C18 5 μm, 4.6×150 mm column using a flow rate of 1.2 ml/min. Amino acid concentrations were measured using fluorescence: excitation at 340 nm, emission at 450 nm. Elution was with a gradient of HPLC Buffers A and B according to Table A, where HPLC Buffer A was 40 mM Na2HPO4, pH=7.8 and HPLC Buffer B was 9:9:2::Methanol:Acetonitrile:Water.
Amino acid standards were prepared from the dry chemicals, using all amino acids of interest. Proline analysis required an additional derivatization step with 9-fluorenylmethyl-chloroformate (FMOC). Amino acid standards were also sometimes purchased in concentrations ranging from 0 to 100 μg/ml. Samples were reported in μg/g of seed powder.
Mature R1 seed is produced and analyzed for free amino acid content using fluorescence detection as described in Agilent Technologies Technical Bulletin REV14. Five seeds are chosen for single seed analysis from each event. […] The highest levels of tryptophan have a negative impact on germination.

Row | Molecule | Km ([1]; pH 7.0, 200 μM chorismate, L-glutamine varied, read-out: Km^Gln) [µM] | Km ([1]; pH 7.0, 10 mM L-glutamine, chorismate varied, read-out: Km^Cho) [µM] | IC50 ([1]; inhibition by L-tryptophan, 10 mM L-glutamine, 200 μM chorismate) [µM] | kcat ([1]; purified enzyme from E. coli) [s⁻¹] | amounts of tryptophan (soy seed)
1 | B1 | 100 | 9.2 | 5.5 | 0.46 | –
2 | B2 | – | – | – | – | very high amounts of tryptophan
3 | B3 | – | – | – | – | very high amounts of tryptophan
